The Kd is the concentration at which binding is half-saturated. Higher therefore signals lower affinity. The Ki is the equilibrium dissociation constant of an inhibitor or competing ligand from its target. A higher Ki goes with a looser hold on the target.

Among the data in patent US20240108738A1 (Bicycle, published 2024) are Kd and Ki values, retold here.

The target in assay [1] is T1, Human NKp46 Fc tag (Acro Biosystems, NC1-H5257) (human, UniProt O76036 22-255).
T1 construct: bought; also called Fc-tagged human NKp46
T1 sequence (O76036 22-255 limits assumed): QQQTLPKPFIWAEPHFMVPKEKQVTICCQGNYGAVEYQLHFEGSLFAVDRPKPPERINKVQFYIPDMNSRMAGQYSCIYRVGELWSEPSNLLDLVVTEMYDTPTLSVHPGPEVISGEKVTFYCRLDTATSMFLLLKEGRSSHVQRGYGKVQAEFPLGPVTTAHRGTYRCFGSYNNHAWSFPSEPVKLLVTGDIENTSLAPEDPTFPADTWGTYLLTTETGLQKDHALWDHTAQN
Briefly: SPR Method 1 and/or 2. In short, it runs like this:
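Fc-tagged human NKp46 captured on anti-human IgG surface (500–1000 RU); compounds run in PBS-P+ with 2% DMSO at 25 °C, 50 μL/min, 60 s association, 400 s dissociation. Double-referenced, DMSO-corrected; KD from steady-state 1:1 fit, kinetic constants from kinetic 1:1 fit where appropriate.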

Assay [2] deals with T2, Human NKp46 His tag (Acro Biosystems, NC1-H52H4) (human, UniProt O76036 22-255).
T2 construct: bought; also called human NKp46-his tagged protein
T2 sequence (O76036 22-255 limits assumed): as above
The experiment in a line: FP competition vs BCY15035. How it is done: The untagged competitor peptides were diluted in assay buffer 25 mM HEPES, 100 mM NaCl, 0.01% P20, pH 7.4. to a top concentration of 5000 nM and diluted 2-fold in 11 steps. The human NKp46-his tagged protein (AcroBiosystems) was diluted to 40 nM final concentration in the assay. […] The total volume of 25 μL was prepared in black walled and flat-bottomed low binding low volume 384 well plates. Measurements were performed using Envision (PerkinElmer) equipped with the excitation filter FITC FP 480, emission filter FITC FP P-pol 535 and 2nd emission filter FITC FP S-pol 535 and set to 30 flashes. The gain was set in a well containing tracer alone without target protein.

Assay [3] deals with T3, human CD16a F176 variant, biotinylated (human, UniProt P08637 17-208, C-terminally biotinylated).
T3 construct: supplier is told for the AlphaScreen assay only; also called F Variant; FcγRIIIA F variant
T3 sequence (P08637 17-208 limits assumed, change not shown): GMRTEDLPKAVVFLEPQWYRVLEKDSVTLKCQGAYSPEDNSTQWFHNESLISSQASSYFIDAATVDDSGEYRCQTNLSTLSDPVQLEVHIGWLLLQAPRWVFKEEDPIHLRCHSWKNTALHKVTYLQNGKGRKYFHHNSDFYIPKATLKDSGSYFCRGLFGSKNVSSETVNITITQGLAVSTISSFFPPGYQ
The experiment in a line: SPR. The procedure:
The SPR analysis was run at 25° C. at a flow rate of 50 μl/min with 60 seconds association and dissociation between 60 and 200 seconds. Data were corrected for DMSO excluded volume effects. All data were double-referenced for blank injections and reference surface using standard processing procedures and data processing and kinetic fitting were performed using Scrubber software, version 2.0c (BioLogic Software). Data were fitted using simple 1:1 binding model allowing for mass transport effects where appropriate.
For analysis of peptide binding, a Biacore 8k+ instrument was used with a CM5 chip (Cytiva). All experiments were carried out at 25° C. Streptavidin was immobilized on all flow cells by standard amine coupling chemistry. The running buffer was HBS-N(Cytiva, 10 mM HEPES, 0.15 M NaCl, pH 7.4) and the flow rate was 10 μl/min. The carboxymethyl dextran surface was activated with a 1:1 ratio of 0.4 M 1-ethyl-3-(3-dimethylaminopropyl) carbodiimide hydrochloride (EDC)/0.1 M N-hydroxy succinimide (NHS) (Cytiva) for 420s. Streptavidin (ProSpec, cat no. PRO-791) was diluted to 0.2 mg/ml in 10 mM sodium acetate pH 4.5 and was injected onto the chip surface for 600 s. Residual activated groups were blocked with a 420 s injection of 1 M ethanolamine (pH 8.5). The final surface density was 2000-3000 RU. Biotinylated CD16a was diluted to 5 μg/ml in HBS-N and was captured on flow cell 2 only of the streptavidin chip at a flow rate of 10 μl/min to 1500-2500 RU. The buffer was then changed to PBS-P+(Cytiva) supplemented with 0.5-2% DMSO. […] The flow rate was 30 μl/min with 100 s association and 400 s dissociation. Data were corrected for DMSO volume exclusion effects. All data were double-referenced against blank injections and reference surface response using standard processing procedures. Data processing and kinetic fitting was performed using Biacore Insight Evaluation Software with Extended Screening and Characterization Extension (Cytiva). Data were fitted using steady state affinity 1:1 binding model to determine KD. Data were fitted using kinetic 1:1 binding model to determine kinetic constants where appropriate.
For orientation: SPR reads the build-up and loss of mass on a sensor chip optically.

Numbered stars: 1 amine (or outer) side, 2 acyl side, 3 side chain; on linkers, the order of the positions; unused ones are H or OH. Bridge positions count the residues as written; N and C are the ends. Square brackets hold non-standard residues; d marks the D form. Primed or numbered codes have the meaning given here. Ends that are not written are not given here. 4MeOPhe = 4-methoxy-phenylalanine, COc1ccc(C[C@H](N[*:1])C(=O)[*:2])cc1; TBMT″ = 2,4,6-tris(bromomethyl)-s-triazine, scaffold on three Cys; TATA = O=C(CC[*:1])N1CN(C(=O)CC[*:2])CN(C(=O)CC[*:3])C1; Phe(4-CF3) = N[C@@H](Cc1ccc(C(F)(F)F)cc1)C(=O)O; Phe(4-CONH2) = NC(=O)c1ccc(C[C@H](N)C(=O)O)cc1; Phe(4-CN) = N#Cc1ccc(C[C@H](N)C(=O)O)cc1; Phe(4-Cl) = N[C@@H](Cc1ccc(Cl)cc1)C(=O)O; Phe(4-F) = N[C@@H](Cc1ccc(F)cc1)C(=O)O; Cba = N[C@@H](CC1CCC1)C(=O)O

With Ac-CY[Cba]PDYLC[dA]DEYC-NH2 (linker 1-8-13 via TATA, scaffold TATA) [BCY16133], binding in assay [1] was characterised by a dissociation constant (Kd) of 4.9 nM. In assay [2], this molecule returned an inhibition constant (Ki) of 10 nM.

B1: BCY16132 (peptide)
peptide: ACY[Cba]PDYLC[dA]DEYCA-NH2
modifications: linker 2-9-14 via TATA; N-terminus assumed
SMILES: CC(C)C[C@@H]1NC(=O)[C@H](Cc2ccc(O)cc2)NC(=O)[C@H](CC(=O)O)NC(=O)[C@@H]2CCCN2C(=O)[C@H](CC2CCC2)NC(=O)[C@H](Cc2ccc(O)cc2)NC(=O)[C@@H](NC(=O)[C@H](C)N)CSCCC(=O)N2CN3CN(C2)C(=O)CCSC[C@H](NC1=O)C(=O)N[C@H](C)C(=O)N[C@@H](CC(=O)O)C(=O)N[C@@H](CCC(=O)O)C(=O)N[C@@H](Cc1ccc(O)cc1)C(=O)N[C@H](C(=O)N[C@@H](C)C(N)=O)CSCCC3=O
notes: scaffold TATA
In assay [1], B1 came in with a Kd of 3.9 nM. Moreover, the inhibition constant (Ki) in assay [2] amounted to 8 nM.

B2: BCY16140 (peptide)
peptide: ACYLPD[Phe(4-CONH2)]LCGDEYCA-NH2
modifications: linker 2-9-14 via TATA; N-terminus assumed
SMILES: CC(C)C[C@@H]1NC(=O)[C@H](Cc2ccc(C(N)=O)cc2)NC(=O)[C@H](CC(=O)O)NC(=O)[C@@H]2CCCN2C(=O)[C@H](CC(C)C)NC(=O)[C@H](Cc2ccc(O)cc2)NC(=O)[C@@H](NC(=O)[C@H](C)N)CSCCC(=O)N2CN3CN(C2)C(=O)CCSC[C@@H](C(=O)N[C@@H](C)C(N)=O)NC(=O)[C@H](Cc2ccc(O)cc2)NC(=O)[C@H](CCC(=O)O)NC(=O)[C@H](CC(=O)O)NC(=O)CNC(=O)[C@H](CSCCC3=O)NC1=O
notes: scaffold TATA
As to B2, in assay [2], the Ki stood at 122 nM.

In the case of ACVGL[Cba]ELGPCSDLCA-NH2 (linker 2-11-15 via TBMT″, scaffold TBMT) [BCY16509], the Kd in assay [3] is 2820 nM.

In turn, ACVGLXELGPCSDLCA (CiVGL[tBuAla]ELGPCiiSDLCiii, scaffold TBMT) [BCY16508] returned a Kd in assay [3] of 2980 nM.

Regarding ACRXSVEDPCGAWCA (CiR[6MeTrp]SVEDPCiiGAWCiii, scaffold TBMT) [BCY19046], the Kd in assay [3] amounted to 1600 nM.

B3: BCY16144 (peptide)
peptide: ACYLPD[Phe(4-Cl)]LCGDEYCA-NH2
modifications: linker 2-9-14 via TATA; N-terminus assumed
SMILES: CC(C)C[C@@H]1NC(=O)[C@H](Cc2ccc(Cl)cc2)NC(=O)[C@H](CC(=O)O)NC(=O)[C@@H]2CCCN2C(=O)[C@H](CC(C)C)NC(=O)[C@H](Cc2ccc(O)cc2)NC(=O)[C@@H](NC(=O)[C@H](C)N)CSCCC(=O)N2CN3CN(C2)C(=O)CCSC[C@@H](C(=O)N[C@@H](C)C(N)=O)NC(=O)[C@H](Cc2ccc(O)cc2)NC(=O)[C@H](CCC(=O)O)NC(=O)[C@H](CC(=O)O)NC(=O)CNC(=O)[C@H](CSCCC3=O)NC1=O
notes: scaffold TATA
B3 had a Ki in assay [2] of 718 nM.

B4: BCY16135 (peptide)
peptide: ACYLPD[Phe(4-F)]LCGDEYCA-NH2
modifications: linker 2-9-14 via TATA; N-terminus assumed
SMILES: CC(C)C[C@@H]1NC(=O)[C@H](Cc2ccc(F)cc2)NC(=O)[C@H](CC(=O)O)NC(=O)[C@@H]2CCCN2C(=O)[C@H](CC(C)C)NC(=O)[C@H](Cc2ccc(O)cc2)NC(=O)[C@@H](NC(=O)[C@H](C)N)CSCCC(=O)N2CN3CN(C2)C(=O)CCSC[C@@H](C(=O)N[C@@H](C)C(N)=O)NC(=O)[C@H](Cc2ccc(O)cc2)NC(=O)[C@H](CCC(=O)O)NC(=O)[C@H](CC(=O)O)NC(=O)CNC(=O)[C@H](CSCCC3=O)NC1=O
notes: scaffold TATA
On to B4, for which the Ki in assay [2] was 639 nM.

B5: BCY16142 (peptide)
peptide: ACYLPD[Phe(4-CF3)]LCGDEYCA-NH2
modifications: linker 2-9-14 via TATA; N-terminus assumed
SMILES: CC(C)C[C@@H]1NC(=O)[C@H](Cc2ccc(C(F)(F)F)cc2)NC(=O)[C@H](CC(=O)O)NC(=O)[C@@H]2CCCN2C(=O)[C@H](CC(C)C)NC(=O)[C@H](Cc2ccc(O)cc2)NC(=O)[C@@H](NC(=O)[C@H](C)N)CSCCC(=O)N2CN3CN(C2)C(=O)CCSC[C@@H](C(=O)N[C@@H](C)C(N)=O)NC(=O)[C@H](Cc2ccc(O)cc2)NC(=O)[C@H](CCC(=O)O)NC(=O)[C@H](CC(=O)O)NC(=O)CNC(=O)[C@H](CSCCC3=O)NC1=O
notes: scaffold TATA
For the molecule B5, in assay [2], affinity was put at a Ki of 317 nM.

B6: BCY16136 (peptide)
peptide: ACYLPD[4MeOPhe]LCGDEYCA-NH2
modifications: linker 2-9-14 via TATA; N-terminus assumed
SMILES: COc1ccc(C[C@@H]2NC(=O)[C@H](CC(=O)O)NC(=O)[C@@H]3CCCN3C(=O)[C@H](CC(C)C)NC(=O)[C@H](Cc3ccc(O)cc3)NC(=O)[C@@H](NC(=O)[C@H](C)N)CSCCC(=O)N3CN4CN(C3)C(=O)CCSC[C@@H](C(=O)N[C@@H](C)C(N)=O)NC(=O)[C@H](Cc3ccc(O)cc3)NC(=O)[C@H](CCC(=O)O)NC(=O)[C@H](CC(=O)O)NC(=O)CNC(=O)[C@H](CSCCC4=O)NC(=O)[C@H](CC(C)C)NC2=O)cc1
notes: scaffold TATA
For the molecule B6, the Ki in assay [2] was found to be 269 nM.

B7: BCY15639 (peptide)
peptide: ACY[Cba]PDYLCGDEYCA-NH2
modifications: linker 2-9-14 via TATA; N-terminus assumed
SMILES: CC(C)C[C@@H]1NC(=O)[C@H](Cc2ccc(O)cc2)NC(=O)[C@H](CC(=O)O)NC(=O)[C@@H]2CCCN2C(=O)[C@H](CC2CCC2)NC(=O)[C@H](Cc2ccc(O)cc2)NC(=O)[C@@H](NC(=O)[C@H](C)N)CSCCC(=O)N2CN3CN(C2)C(=O)CCSC[C@@H](C(=O)N[C@@H](C)C(N)=O)NC(=O)[C@H](Cc2ccc(O)cc2)NC(=O)[C@H](CCC(=O)O)NC(=O)[C@H](CC(=O)O)NC(=O)CNC(=O)[C@H](CSCCC3=O)NC1=O
notes: scaffold TATA
Consider B7, for which, in assay [1], the Kd came out at 11 nM. The same molecule registered a Ki in assay [2] of 17 nM.

B8: BCY16143 (peptide)
peptide: ACYLPD[Phe(4-CN)]LCGDEYCA-NH2
modifications: linker 2-9-14 via TATA; N-terminus assumed
SMILES: CC(C)C[C@@H]1NC(=O)[C@H](Cc2ccc(C#N)cc2)NC(=O)[C@H](CC(=O)O)NC(=O)[C@@H]2CCCN2C(=O)[C@H](CC(C)C)NC(=O)[C@H](Cc2ccc(O)cc2)NC(=O)[C@@H](NC(=O)[C@H](C)N)CSCCC(=O)N2CN3CN(C2)C(=O)CCSC[C@@H](C(=O)N[C@@H](C)C(N)=O)NC(=O)[C@H](Cc2ccc(O)cc2)NC(=O)[C@H](CCC(=O)O)NC(=O)[C@H](CC(=O)O)NC(=O)CNC(=O)[C@H](CSCCC3=O)NC1=O
notes: scaffold TATA
Turning to B8, the affinity in assay [2] corresponds to a Ki of 464 nM.

Turning to ACYLPDWLCGDEYCA-NH2 (linker 2-9-14 via TATA; also: scaffold TATA, TATB or TBMT, scaffold TATA) [BCY14455], the Kd in assay [1] turned out to be 230 nM. Moreover, affinity in assay [2] was put at a Ki of 282 nM.

B9: BCY15650 (peptide)
peptide: ACYLPDYLC[dA]DEYCA-NH2
modifications: linker 2-9-14 via TATA; N-terminus assumed
SMILES: CC(C)C[C@@H]1NC(=O)[C@H](Cc2ccc(O)cc2)NC(=O)[C@H](CC(=O)O)NC(=O)[C@@H]2CCCN2C(=O)[C@H](CC(C)C)NC(=O)[C@H](Cc2ccc(O)cc2)NC(=O)[C@@H](NC(=O)[C@H](C)N)CSCCC(=O)N2CN3CN(C2)C(=O)CCSC[C@H](NC1=O)C(=O)N[C@H](C)C(=O)N[C@@H](CC(=O)O)C(=O)N[C@@H](CCC(=O)O)C(=O)N[C@@H](Cc1ccc(O)cc1)C(=O)N[C@H](C(=O)N[C@@H](C)C(N)=O)CSCCC3=O
notes: scaffold TATA
For the molecule B9, the Kd in assay [1] turned out to be 10 nM. This molecule had a Ki in assay [2] of 16 nM.

In turn, ACYLPAYLCGDEYCA-NH2 (linker 2-9-14 via TATA; also: cyclised with TATA, TATB or TBMT, scaffold TATA) [BCY15656] showed a Kd in assay [1] of 34 nM. For the same molecule, in assay [2], the affinity, expressed as Ki, was 39 nM.
